Target: GFP-tagged Tubulin (fusion construct of Tubulin and GFP)
Experiment: FRET or BRET

B1: DsRed-tagged Ccdc181 (FACS-FRET construct) (natural protein)
chain: MDEDKDIDSKESGEYEDDFEKDLEWLINDKEKSNGSTIEMACKKEDDLDQVLKENETETELGQQLSDPDNSPKDEALPRRNDFISVPSIQPLDPISDSDSENSFQDSKPENQKDLEDEEDEEVRRYIMEKIIEANKLLQTQEPVNDKRERKLKFKDKLVDLEVPPLEDSDTCKALLENETNMSGKLSQLCISGDLEQESVLVSVTDGSCEENDRKILVERDGKFELMNLQDIESQGFLPPISSANSVEHESSQLPLRAPNPSVGGIKKEESEAKGHVLPISPAGEPLAQVPQLLPNPKNRPSSAANPDVTKKARRSNHRIQSAGVSPVTSTYCLSPRQKELQKQLERKREKLKREEEQRKLEEENEKKKENEMVFKAWLQKKREQVIEMRRVQRAKQIEDMSSRQVNRDPQQAFRLWLKKKHEEQMKERKTEELRKQEECLFFLRGTEGRERAFRQWLRRKQIEKIAEQQAVKERARQLRLEARRSKQLQSSLYSIPEAKAFRFTDHYN
percent FRET positive cells: 29.4%
